# Data as given in IntAct's records for PubMed 18940603.
# B1: Ras-related protein Rab-27A (Mus musculus), Q9ERI2 (parent)
# chain: MSDGDYDYLIKFLALGDSGVGKTSVLYQYTDGKFNSKFITTVGIDFREKRVVYRANGPDGAVGRGQRIHLQLWDTAGQERFRSLTTAFFRDAMGFLLLFDLTNEQSFLNVRNWISQLQMHAYCENPDIVLCGNKSDLEDQRAVKEEEARELAEKYGIPYFETSAANGTNISHAIEMLLDLIMKRMERCVDKSWIPEGVVRSNGHTSADQLSEEKEKGLCGC
# partner: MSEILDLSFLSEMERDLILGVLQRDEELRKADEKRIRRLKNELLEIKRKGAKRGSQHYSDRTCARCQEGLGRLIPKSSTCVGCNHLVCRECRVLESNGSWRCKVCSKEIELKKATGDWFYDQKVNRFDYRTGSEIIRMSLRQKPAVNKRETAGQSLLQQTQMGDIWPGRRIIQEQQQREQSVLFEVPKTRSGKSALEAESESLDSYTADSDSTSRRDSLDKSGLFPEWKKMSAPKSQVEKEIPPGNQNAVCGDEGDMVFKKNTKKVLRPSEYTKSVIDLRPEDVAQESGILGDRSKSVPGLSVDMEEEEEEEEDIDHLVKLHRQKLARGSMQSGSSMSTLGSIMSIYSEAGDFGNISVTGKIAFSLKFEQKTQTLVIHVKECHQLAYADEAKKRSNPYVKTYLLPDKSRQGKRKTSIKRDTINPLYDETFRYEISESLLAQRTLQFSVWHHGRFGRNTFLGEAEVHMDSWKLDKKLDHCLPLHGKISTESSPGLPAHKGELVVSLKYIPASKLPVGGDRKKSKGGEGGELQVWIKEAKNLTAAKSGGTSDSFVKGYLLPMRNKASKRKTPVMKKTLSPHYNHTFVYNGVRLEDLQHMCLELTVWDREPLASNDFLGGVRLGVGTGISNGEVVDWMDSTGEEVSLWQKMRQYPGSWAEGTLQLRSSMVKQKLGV
# B2: Ras-related protein Rab-27B (Mus musculus), Q99P58 (parent)
# chain: MTDGDYDYLIKLLALGDSGVGKTTFLYRYTDNKFNPKFITTVGIDFREKRVVYDTQGADGASGKAFKVHLQLWDTAGQERFRSLTTAFFRDAMGFLLMFDLTSQQSFLNVRNWMSQLQANAYCENPDIVLIGNKADLPDQREVNERQARELAEKYGIPYFETSAATGQNVEKSVETLLDLIMKRMEKCVEKTQVPDTVNGGNSGKLDGEKPAEKKCAC
# partner: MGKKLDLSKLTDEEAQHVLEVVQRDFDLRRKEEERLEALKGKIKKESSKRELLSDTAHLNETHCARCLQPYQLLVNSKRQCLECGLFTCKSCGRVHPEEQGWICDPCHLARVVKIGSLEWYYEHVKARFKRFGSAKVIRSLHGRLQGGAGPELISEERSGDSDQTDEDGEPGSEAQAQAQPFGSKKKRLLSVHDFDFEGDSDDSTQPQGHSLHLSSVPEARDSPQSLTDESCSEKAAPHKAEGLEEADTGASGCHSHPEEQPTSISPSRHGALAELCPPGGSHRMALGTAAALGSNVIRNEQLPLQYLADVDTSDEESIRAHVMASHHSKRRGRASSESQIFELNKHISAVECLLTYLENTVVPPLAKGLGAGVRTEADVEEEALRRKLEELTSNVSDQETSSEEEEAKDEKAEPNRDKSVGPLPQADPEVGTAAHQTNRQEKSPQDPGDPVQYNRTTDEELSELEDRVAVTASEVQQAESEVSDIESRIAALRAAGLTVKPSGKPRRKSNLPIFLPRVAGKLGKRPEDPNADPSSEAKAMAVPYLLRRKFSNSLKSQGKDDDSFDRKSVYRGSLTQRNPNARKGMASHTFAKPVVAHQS
# B3: Ras-related protein Rab-27A (Mus musculus), Q9ERI2 (parent)
# chain: B1 chain
# partner: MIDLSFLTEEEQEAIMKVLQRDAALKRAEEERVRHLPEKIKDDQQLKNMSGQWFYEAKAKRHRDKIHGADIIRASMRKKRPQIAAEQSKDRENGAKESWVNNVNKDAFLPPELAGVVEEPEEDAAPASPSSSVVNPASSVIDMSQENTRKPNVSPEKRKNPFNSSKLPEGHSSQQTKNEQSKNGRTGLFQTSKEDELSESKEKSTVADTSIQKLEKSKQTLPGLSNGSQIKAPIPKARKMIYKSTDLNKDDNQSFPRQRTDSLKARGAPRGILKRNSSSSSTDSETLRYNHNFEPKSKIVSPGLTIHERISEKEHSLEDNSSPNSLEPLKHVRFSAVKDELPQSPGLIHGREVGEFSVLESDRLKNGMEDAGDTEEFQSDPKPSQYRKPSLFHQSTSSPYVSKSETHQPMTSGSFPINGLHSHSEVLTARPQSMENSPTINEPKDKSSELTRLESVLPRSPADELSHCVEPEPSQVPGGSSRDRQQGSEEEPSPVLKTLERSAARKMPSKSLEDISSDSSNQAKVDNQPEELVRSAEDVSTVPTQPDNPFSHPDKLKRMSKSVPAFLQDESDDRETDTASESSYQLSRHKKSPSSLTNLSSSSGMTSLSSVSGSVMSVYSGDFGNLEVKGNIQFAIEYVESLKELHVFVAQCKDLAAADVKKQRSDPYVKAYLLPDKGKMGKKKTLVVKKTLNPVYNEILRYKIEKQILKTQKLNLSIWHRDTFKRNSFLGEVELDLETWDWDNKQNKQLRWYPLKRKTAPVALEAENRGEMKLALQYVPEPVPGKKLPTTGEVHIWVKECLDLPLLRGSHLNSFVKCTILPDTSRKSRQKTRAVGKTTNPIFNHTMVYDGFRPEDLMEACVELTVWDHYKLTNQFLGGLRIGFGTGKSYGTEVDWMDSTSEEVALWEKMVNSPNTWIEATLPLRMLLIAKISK
# B4: Ras-related protein Rab-27A (Mus musculus), Q9ERI2 (parent)
# chain: B1 chain
# partner: B2 partner
# B5: Ras-related protein Rab-27B (Mus musculus), Q99P58 (parent)
# chain: B2 chain
# partner: B1 partner
# B6: Ras-related protein Rab-27B (Mus musculus), Q99P58 (parent)
# chain: B2 chain
# partner: B3 partner
# Variants of: B1
# Details: with Sytl4, Q9R0Q1-1
row,Variant,effect of a mutation on the interaction
1,MSDGDYDYLIKFLALGDSGVGKTSVLYQYTDGKFNSKFITTVGIDFREKRVVYRANGPDGAVGRGQRIHLQLWDTAGQERFRSLTTAFFRDAMGFLLLFDLTNEQSFLNVRNWISQLQMHAYCENPDIVLCGNKSDLEDQRAVKEEEARELAEKYGIPYFETSAANGTNISHAIEMLLDLIMKRMERSVDKSWIPEGVVRSNGHTSADQLSEEKEKGLCGC [C188S],increasing interaction
2,MSDGDYDYLIKFLALGDSGVGKTSVLYQYTDGKFNSKFITTVGIDFREKRVVYRANGPDGAVGRGQRIHLQLWDTAGQERFRSLTTAFFRDAMGFLLLFDLTNEQSFLNVRNWISQLQMHAYSENPDIVLCGNKSDLEDQRAVKEEEARELAEKYGIPYFETSAANGTNISHAIEMLLDLIMKRMERCVDKSWIPEGVVRSNGHTSADQLSEEKEKGLCGC [C123S],increasing interaction
3,MSDGDYDYLIKFLALGDSGVGKTSVLYQYTDGKFNSKFITTVGIDFREKRVVYRANGPDGAVGRGQRIHLQLWDTAGQERFRSLTTAFFRDAMGFLLLFDLTNEQSFLNVRNWISQLQMHAYSENPDIVLCGNKSDLEDQRAVKEEEARELAEKYGIPYFETSAANGTNISHAIEMLLDLIMKRMERSVDKSWIPEGVVRSNGHTSADQLSEEKEKGLCGC [C123S;C188S],increasing interaction

# Variants of: B2
# Details: with melph_human MLPH
row,Variant,effect of a mutation on the interaction
1,MTDGDYDYLIKLLALGDSGVGKTTFLYRYTDNKFNPKFITTVGIDFREKRVVYDTQGADGASGKAFKVHLQLWDTAGQERFRSLTTAFFRDAMGFLLMFDLTSQQSFLNVRNWMSQLQANAYCENPDIVLIGNKADLPDQREVNERQARELAEKYGIPYFETSAATGQNVEKSVETLLDLIMKRMEKSVEKTQVPDTVNGGNSGKLDGEKPAEKKCAC [C188S],increasing interaction
2,MTDGDYDYLIKLLALGDSGVGKTTFLYRYTDNKFNPKFITTVGIDFREKRVVYDTQGADGASGKAFKVHLQLWDTAGQERFRSLTTAFFRDAMGFLLMFDLTSQQSFLNVRNWMSQLQANAYSENPDIVLIGNKADLPDQREVNERQARELAEKYGIPYFETSAATGQNVEKSVETLLDLIMKRMEKSVEKTQVPDTVNGGNSGKLDGEKPAEKKCAC [C123S;C188S],increasing interaction

# Variants of: B3
# Details: with sytl2_human SYTL2, Q9HCH5
row,Variant,effect of a mutation on the interaction
1,MSDGDYDYLIKFLALGDSGVGKTSVLYQYTDGKFNSKFITTVGIDFREKRVVYRANGPDGAVGRGQRIHLQLWDTAGQERFRSLTTAFFRDAMGFLLLFDLTNEQSFLNVRNWISQLQMHAYSENPDIVLCGNKSDLEDQRAVKEEEARELAEKYGIPYFETSAANGTNISHAIEMLLDLIMKRMERSVDKSWIPEGVVRSNGHTSADQLSEEKEKGLCGC [C123S;C188S],increasing interaction

# Variants of: B4
# Details: with melph_human MLPH
row,Variant,effect of a mutation on the interaction
1,MSDGDYDYLIKFLALGDSGVGKTSVLYQYTDGKFNSKFITTVGIDFREKRVVYRANGPDGAVGRGQRIHLQLWDTAGQERFRSLTTAFFRDAMGFLLLFDLTNEQSFLNVRNWISQLQMHAYCENPDIVLCGNKSDLEDQRAVKEEEARELAEKYGIPYFETSAANGTNISHAIEMLLDLIMKRMERSVDKSWIPEGVVRSNGHTSADQLSEEKEKGLCGC [C188S],increasing interaction
2,MSDGDYDYLIKFLALGDSGVGKTSVLYQYTDGKFNSKFITTVGIDFREKRVVYRANGPDGAVGRGQRIHLQLWDTAGQERFRSLTTAFFRDAMGFLLLFDLTNEQSFLNVRNWISQLQMHAYSENPDIVLCGNKSDLEDQRAVKEEEARELAEKYGIPYFETSAANGTNISHAIEMLLDLIMKRMERSVDKSWIPEGVVRSNGHTSADQLSEEKEKGLCGC [C123S;C188S],increasing interaction

# Variants of: B5
# Details: with Sytl4, Q9R0Q1-1
row,Variant,effect of a mutation on the interaction
1,MTDGDYDYLIKLLALGDSGVGKTTFLYRYTDNKFNPKFITTVGIDFREKRVVYDTQGADGASGKAFKVHLQLWDTAGQERFRSLTTAFFRDAMGFLLMFDLTSQQSFLNVRNWMSQLQANAYCENPDIVLIGNKADLPDQREVNERQARELAEKYGIPYFETSAATGQNVEKSVETLLDLIMKRMEKSVEKTQVPDTVNGGNSGKLDGEKPAEKKCAC [C188S],increasing interaction
2,MTDGDYDYLIKLLALGDSGVGKTTFLYRYTDNKFNPKFITTVGIDFREKRVVYDTQGADGASGKAFKVHLQLWDTAGQERFRSLTTAFFRDAMGFLLMFDLTSQQSFLNVRNWMSQLQANAYSENPDIVLIGNKADLPDQREVNERQARELAEKYGIPYFETSAATGQNVEKSVETLLDLIMKRMEKCVEKTQVPDTVNGGNSGKLDGEKPAEKKCAC [C123S],increasing interaction
3,MTDGDYDYLIKLLALGDSGVGKTTFLYRYTDNKFNPKFITTVGIDFREKRVVYDTQGADGASGKAFKVHLQLWDTAGQERFRSLTTAFFRDAMGFLLMFDLTSQQSFLNVRNWMSQLQANAYSENPDIVLIGNKADLPDQREVNERQARELAEKYGIPYFETSAATGQNVEKSVETLLDLIMKRMEKSVEKTQVPDTVNGGNSGKLDGEKPAEKKCAC [C123S;C188S],increasing interaction

# Variants of: B6
# Details: with sytl2_human SYTL2, Q9HCH5
row,Variant,effect of a mutation on the interaction
1,MTDGDYDYLIKLLALGDSGVGKTTFLYRYTDNKFNPKFITTVGIDFREKRVVYDTQGADGASGKAFKVHLQLWDTAGQERFRSLTTAFFRDAMGFLLMFDLTSQQSFLNVRNWMSQLQANAYSENPDIVLIGNKADLPDQREVNERQARELAEKYGIPYFETSAATGQNVEKSVETLLDLIMKRMEKSVEKTQVPDTVNGGNSGKLDGEKPAEKKCAC [C123S;C188S],increasing interaction
